The source of these data is paper PMC4559223 (Journal of molecular biology, 2008).

The data set “native gel or EMSA” deals with the molecule itself. The data set can be described thus: native gel or EMSA. On the technique in general: A gel shift assay detects complexes by their altered migration in electrophoresis.
The data set “crystal structure” concerns the molecule itself. Nature of the data set: crystal structure.

B1: mouse GATA3 double zinc finger fragment (amino acids 260-370) (domain or fragment)
chain: not shown
In the case of B1, in “native gel or EMSA”, the binding result is listed as “binds”.

B2: mouse GATA3 C-terminal zinc finger (amino acid residues 308-370) (domain or fragment, UniProt P23772 308-370, looked up)
chain: SAARRAGTSCANCQTTTTTLWRRNANGDPVCNACGLYYKLHNINRPLTMKKEGIQTRNRKMSS
Regarding B2, in the data set “crystal structure”, the binding result was “binds”.
